For experiment [1], the target named is recombinant mouse IL-2 (mouse) (UniProt P04351). Briefly: cell-based or functional assay.
Experiment [2] has as its target T1, recombinant mouse CD25 his tagged (mouse, UniProt P01590 22-236, limits assumed).
T1 construct: also called rmCD25 his tagged; mCD25; not shown: his tag
T1 sequence (looked up): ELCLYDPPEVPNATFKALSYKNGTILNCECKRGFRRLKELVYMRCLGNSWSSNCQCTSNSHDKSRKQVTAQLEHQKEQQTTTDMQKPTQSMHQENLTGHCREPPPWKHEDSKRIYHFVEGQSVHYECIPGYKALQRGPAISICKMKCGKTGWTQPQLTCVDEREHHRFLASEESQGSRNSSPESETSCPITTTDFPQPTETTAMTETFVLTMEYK
Briefly: SPR Biacore 2000, antibody captured by anti-mouse antibody on CM-5 chip, recombinant mouse CD25 his tagged as analyte, bivalent analyte model. For orientation: In SPR one partner is held on a chip, and binding of the other changes the refractive index at the surface.

The target in experiment [3] is T2, recombinant mouse CD25 (mouse, UniProt P01590 22-236, biotinylated in FIG. 1A (site not stated)).
T2 construct: also called biotinylated mouse CD25
T2 sequence (looked up): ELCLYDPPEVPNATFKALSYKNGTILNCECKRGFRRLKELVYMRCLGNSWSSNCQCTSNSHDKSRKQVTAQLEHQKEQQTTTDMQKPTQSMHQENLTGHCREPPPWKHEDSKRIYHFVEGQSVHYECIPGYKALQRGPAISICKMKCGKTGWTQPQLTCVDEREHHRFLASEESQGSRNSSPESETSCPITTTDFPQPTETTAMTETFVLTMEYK
Put plainly: BLI tandem cross-blocking: biotinylated mouse CD25 on SA sensor, 100 nM mouse IL-2, then antibody at 150 s.

Experiment [4] concerns the target T2, recombinant mouse CD25. Put plainly: BLI Octet RED384, IgG on AHQ sensors, 100 nM antigen, 1:1 model. For orientation: In BLI a coated tip is dipped into the sample, and binding shifts an interference pattern.
Experimental: Briefly, ForteBio affinity measurements were performed by loading IgGs on-line onto AHQ sensors. Sensors were equilibrated off-line in assay buffer for 30 min and then monitored on-line for 60 seconds for baseline establishment. Sensors with loaded IgGs were exposed to 100 nM antigen for 3 minutes, and afterwards were transferred to assay buffer for 3 min for off-rate measurement. All kinetics were analyzed using the 1:1 binding model.

In the case of “neutralizing anti-mouse IL-2 antibody, clone Jes6-1A12”, the frequency of CD4 T cells both proliferating and producing Granzyme B after anti-CD3/anti-CD28 stimulation in experiment [1] was less than 1%.

B1: 2E4, anti-mouse CD25 antibody from the 2E4 hybridoma (antibody, V domains shown)
VH: EVQLVESGGGLVQPGRSLKLSCAASGFTFSDYGMAWVRQAPTKGLEWVASITNGGLNTYYRDSVKGRFTISRDNAKCTLYLQMDSLRSEDTATYYCATGGFSFWGQGTLVTVSS
VL: DIVMTQSPTSMSISVGDRVTMNCKASQNVDSNVDWYQQKTGQSPKLLIYKASNRYTGVPDRFTGSGSGTDFTFTIRNMQAEDLAVYYCMQSNSYPLTFGSGTKLEIK
notes: also called 2E4 (mlg1)
Turning to B1, in experiment [2], the Kd turned out to be 114 nM.

B2: recombinant mouse IL-2 (ligand, UniProt P04351 21-169, looked up)
chain: APTSSSTSSSTAEAQQQQQQQQQQQQHLEQLLMDLQELLSRMENYRNLKLPRMLTFKFYLPKQATELKDLQCLEDELGPLRHVLDLTQSKSFQLEDAENFISNIRVTVVKLKGSDNTFECQFDDESATVVDFLRRWIAFCQSIISTSPQ
Consider B2, for which the binding result with recombinant mouse CD25 [3] was “binds”.

B3: 7D4(mIgG2a), recombinant anti-mouse CD25 antibody with mouse IgG2a and kappa constant regions (antibody)
heavy: EVQLQQSGAALVKPGASVKMSCKASGYSFPDSWVTWVKQSHGKSLEWIGDIFPNSGATNFNEKFKGKATLTVDKSTSTAYMELSRLTSEDSAIYYCTRLDYGYWGQGVMVTVSSAKTTAPSVYPLAPVCGDTTGSSVTLGCLVKGYFPEPVTLTWNSGSLSSGVHTFPAVLQSDLYTLSSSVTVTSSTWPSQSITCNVAHPASSTKVDKKIEPRGPTIKPCPPCKCPAPNLLGGPSVFIFPPKIKDVLMISLSPIVTCVVVDVSEDDPDVQISWFVNNVEVHTAQTQTHREDYNSTLRVVSALPIQHQDWMSGKEFKCKVNNKDLPAPIERTISKPKGSVRAPQVYVLPPPEEEMTKKQVTLTCMVTDFMPEDIYVEWTNNGKTELNYKNTEPVLDSDGSYFMYSKLRVEKKNWVERNSYSCSVVHEGLHNHHTTKSFSRTPGK
light: DVVLTQTPPTLSATIGQSVSISCRSSQSLLHSNGNTYLNWLLQRPGQPPQLLIYLASRLESGVPNRFSGSGSGTDFTLKISGVEAEDLGVYYCVQSSHFPNTFGVGTKLEIKRADAAPTVSIFPPSSEQLTSGGASVVCFLNNFYPKDINVKWKIDGSERQNGVLNSWTDQDSKDSTYSMSSTLTLTKDEYERHNSYTCEATHKTSTSPIVKSFNRNEC
notes: also called 7D4m2a; a7D4 mIgG2a
B3: the Kd was 2.6 nM in experiment [2] and roughly 1 nM with recombinant mouse CD25 [4].

B4: 7D4(mIgG1), recombinant anti-mouse CD25 antibody with murine IgG1 and kappa constant regions (antibody)
heavy: EVQLQQSGAALVKPGASVKMSCKASGYSFPDSWVTWVKQSHGKSLEWIGDIFPNSGATNFNEKFKGKATLTVDKSTSTAYMELSRLTSEDSAIYYCTRLDYGYWGQGVMVTVSSAKTTPPSVYPLAPGSAAQTNSMVTLGCLVKGYFPEPVTVTWNSGSLSSGVHTFPAVLQSDLYTLSSSVTVPSSTWPSQTVTCNVAHPASSTKVDKKIVPRDCGCKPCICTVPEVSSVFIFPPKPKDVLMISLTPKVTCVVVDISKDDPEVQFSWFVDDVEVHTAQTKPREEQINSTERSVSELPILHQDWLNGKEFKCRVNSAAFPAPIEKTISKTKGRPKAPQVYTIPPPKEQMAKDKVSLTCMITNEFPEDITVEWQWNGQPAENYKNTQPIMDTDGSYFVYSKLNVQKSNWEAGNTFTCSVLHEGLHNHHTEKSLSHSPGK
light: DVVLTQTPPTLSATIGQSVSISCRSSQSLLHSNGNTYLNWLLQRPGQPPQLLIYLASRLESGVPNRFSGSGSGTDFTLKISGVEAEDLGVYYCVQSSHFPNTFGVGTKLEIKRADAAPTVSIFPPSSEQLTSGGASVVCFLNNFYPKDINVKWKIDGSERQNGVLNSWTDQDSKDSTYSMSSTLTLTKDEYERHNSYTCEATHKTSTSPIVKSFNRNEC
notes: also called a7D4(mIgG1); 7D4 (mlg1)
As to B4, the Kd with recombinant mouse CD25 [4] was roughly 1 nM.

The values above are taken from patent US20200010554A1 (TUSK THERAPEUTICS, published 2020).
